The chains are these.
B1: AMOTL2 peptide 64-79 (Angiomotin-like protein 2), 16-mer library wild type / TNKS ANK (TNKS 12 ANK repeats, residues 174-649) (parent complex)
chain 1: QVLQQATRQEPQGQEH
chain 2: TGVPAVSGALRELLEACRNGDVSRVKRLVDAANVNAKDMAGRKSSPLHFAAGFGRKDVVEHLLQMGANVHARDDGGLIPLHNACSFGHAEVVSLLLCQGADPNARDNWNYTPLHEAAIKGKIDVCIVLLQHGADPNIRNTDGKSALDLADPSAKAVLTGEYKKDELLEAARSGNEEKLMALLTPLNVNCHASDGRKSTPLHLAAGYNRVRIVQLLLQHGADVHAKDKGGLVPLHNACSYGHYEVTELLLKHGACVNAMDLWQFTPLHEAASKNRVEVCSLLLSHGADPTLVNCHGKSAVDMAPTPELRERLTYEFKGHSLLQAAREADLAKVKKTLALEIINFKQPQSHETALHCAVASLHPKRKQVTELLLRKGANVNEKNKDFMTPLHVAAERAHNDVMEVLHKHGAKMNALDTLGQTALHRAALAGHLQTCRLLLSYGSDPSIISLQGFTAAQMGNEAVQQILSESTPIRTSD

Variants of B1 are the subject of the assay. Briefly: proteomic peptide phage display deep mutational scan (ProP-PD DMS): M13 P8 16-mer library selected against immobilised GST-tagged bait for four days (rounds), NGS of the eluted pools per day and pseudo-replica; bait immobilised on MaxiSorp plates (10 µg), library pre-cleared on GST, 2 h binding at 4 °C, five washes; one round per day, days 1-4; value from days 2 and 3.
Turning to chain 1 P11V, the screen value was 0.000173 average fractional NGS count over selection days 2 and 3 (reads of this peptide / all reads for the bait, averaged over …. Take chain 1 P11T: the screen value was 0.00762 average fractional NGS count over selection days 2 and 3 (reads of this peptide / all reads for the bait, averaged over …. In the case of chain 1 P11A it was 0.000173 average fractional NGS count over selection days 2 and 3 (reads of this peptide / all reads for the bait, averaged over …; in that of chain 1 E15F, 0.000795 average fractional NGS count over selection days 2 and 3 (reads of this peptide / all reads for the bait, averaged over …; in that of chain 1 E15V, 0.00435 average fractional NGS count over selection days 2 and 3 (reads of this peptide / all reads for the bait, averaged over ….

chain 1 E15N: the screen value was 0.00037 average fractional NGS count over selection days 2 and 3 (reads of this peptide / all reads for the bait, averaged over …. In the case of chain 1 E15T it was 0.00184 average fractional NGS count over selection days 2 and 3 (reads of this peptide / all reads for the bait, averaged over …; in that of chain 1 E15W, 0.00103 average fractional NGS count over selection days 2 and 3 (reads of this peptide / all reads for the bait, averaged over …; in that of chain 1 E15P, 0.000133 average fractional NGS count over selection days 2 and 3 (reads of this peptide / all reads for the bait, averaged over …. Turning to chain 1 E15M, the screen value was 0.000421 average fractional NGS count over selection days 2 and 3 (reads of this peptide / all reads for the bait, averaged over ….

Consider chain 1 E15Y, for which the screen value was 0.0003 average fractional NGS count over selection days 2 and 3 (reads of this peptide / all reads for the bait, averaged over …. With chain 1 E15S, the screen value was 0.00106 average fractional NGS count over selection days 2 and 3 (reads of this peptide / all reads for the bait, averaged over …. With chain 1 E15R, the screen value was 0.00165 average fractional NGS count over selection days 2 and 3 (reads of this peptide / all reads for the bait, averaged over ….

chain 1 E15Q: the screen value was 0.000335 average fractional NGS count over selection days 2 and 3 (reads of this peptide / all reads for the bait, averaged over …. In the case of chain 1 E15L, the screen value is 0.00245 average fractional NGS count over selection days 2 and 3 (reads of this peptide / all reads for the bait, averaged over ….

Consider chain 1 E15A, for which the screen value was 0.000599 average fractional NGS count over selection days 2 and 3 (reads of this peptide / all reads for the bait, averaged over …. For the variant chain 1 G13R, the screen value was 0.000155 average fractional NGS count over selection days 2 and 3 (reads of this peptide / all reads for the bait, averaged over …. Regarding chain 1 L3A, the screen value is 0.000396 average fractional NGS count over selection days 2 and 3 (reads of this peptide / all reads for the bait, averaged over ….

Turning to chain 1 L3Y, the screen value is 0.000502 average fractional NGS count over selection days 2 and 3 (reads of this peptide / all reads for the bait, averaged over ….

On to chain 1 L3F, for which the screen value was 0.00165 average fractional NGS count over selection days 2 and 3 (reads of this peptide / all reads for the bait, averaged over …. In the case of chain 1 L3M it was 0.000608 average fractional NGS count over selection days 2 and 3 (reads of this peptide / all reads for the bait, averaged over …; in that of chain 1 L3H, 0.00318 average fractional NGS count over selection days 2 and 3 (reads of this peptide / all reads for the bait, averaged over …; in that of chain 1 L3K, 0.00157 average fractional NGS count over selection days 2 and 3 (reads of this peptide / all reads for the bait, averaged over …. Next, chain 1 L3G: 0.000399 average fractional NGS count over selection days 2 and 3 (reads of this peptide / all reads for the bait, averaged over …. Next, chain 1 L3V: 0.00036 average fractional NGS count over selection days 2 and 3 (reads of this peptide / all reads for the bait, averaged over …; chain 1 L3D: 0.000181 average fractional NGS count over selection days 2 and 3 (reads of this peptide / all reads for the bait, averaged over …. chain 1 L3S: the screen value is 0.000145 average fractional NGS count over selection days 2 and 3 (reads of this peptide / all reads for the bait, averaged over …. Consider chain 1 L3R, for which the screen value is 0.000319 average fractional NGS count over selection days 2 and 3 (reads of this peptide / all reads for the bait, averaged over ….

For chain 1 L3Q, the screen value was 0.00366 average fractional NGS count over selection days 2 and 3 (reads of this peptide / all reads for the bait, averaged over …. For the variant chain 1 L3P, the screen value is 0.000422 average fractional NGS count over selection days 2 and 3 (reads of this peptide / all reads for the bait, averaged over …. Next, chain 1 L3T: 0.00246 average fractional NGS count over selection days 2 and 3 (reads of this peptide / all reads for the bait, averaged over …; chain 1 L3I: 0.00105 average fractional NGS count over selection days 2 and 3 (reads of this peptide / all reads for the bait, averaged over …; chain 1 L3E: 0.00384 average fractional NGS count over selection days 2 and 3 (reads of this peptide / all reads for the bait, averaged over ….

Consider chain 1 Q14H, for which the screen value is 0.00069 average fractional NGS count over selection days 2 and 3 (reads of this peptide / all reads for the bait, averaged over …. Turning to chain 1 Q14D, the screen value was 0.00025 average fractional NGS count over selection days 2 and 3 (reads of this peptide / all reads for the bait, averaged over …. On to chain 1 Q14Y, for which the screen value was 0.000143 average fractional NGS count over selection days 2 and 3 (reads of this peptide / all reads for the bait, averaged over …. With chain 1 Q14K, the screen value is 0.000473 average fractional NGS count over selection days 2 and 3 (reads of this peptide / all reads for the bait, averaged over …. In the case of chain 1 Q14I it was 0.002 average fractional NGS count over selection days 2 and 3 (reads of this peptide / all reads for the bait, averaged over …; in that of chain 1 Q14L, 0.000371 average fractional NGS count over selection days 2 and 3 (reads of this peptide / all reads for the bait, averaged over …; in that of chain 1 Q14V, 0.000381 average fractional NGS count over selection days 2 and 3 (reads of this peptide / all reads for the bait, averaged over …. Next, chain 1 Q14T: 0.00286 average fractional NGS count over selection days 2 and 3 (reads of this peptide / all reads for the bait, averaged over …; chain 1 Q14N: 0.00223 average fractional NGS count over selection days 2 and 3 (reads of this peptide / all reads for the bait, averaged over …; chain 1 Q14W: 0.00254 average fractional NGS count over selection days 2 and 3 (reads of this peptide / all reads for the bait, averaged over …. Take chain 1 Q14R: the screen value is 0.0014 average fractional NGS count over selection days 2 and 3 (reads of this peptide / all reads for the bait, averaged over …. chain 1 Q14S: the screen value is 0.00613 average fractional NGS count over selection days 2 and 3 (reads of this peptide / all reads for the bait, averaged over …. Next, chain 1 H16V: 0.000284 average fractional NGS count over selection days 2 and 3 (reads of this peptide / all reads for the bait, averaged over …. Next, chain 1 H16L: 0.000215 average fractional NGS count over selection days 2 and 3 (reads of this peptide / all reads for the bait, averaged over ….

With chain 1 H16A, the screen value is 0.00111 average fractional NGS count over selection days 2 and 3 (reads of this peptide / all reads for the bait, averaged over …. Take chain 1 H16Y: the screen value was 0.00033 average fractional NGS count over selection days 2 and 3 (reads of this peptide / all reads for the bait, averaged over ….

For the variant chain 1 H16P, the screen value is 0.000313 average fractional NGS count over selection days 2 and 3 (reads of this peptide / all reads for the bait, averaged over …. Turning to chain 1 H16M, the screen value is 0.0005 average fractional NGS count over selection days 2 and 3 (reads of this peptide / all reads for the bait, averaged over ….

For chain 1 H16S, the screen value was 0.000142 average fractional NGS count over selection days 2 and 3 (reads of this peptide / all reads for the bait, averaged over …. In the case of chain 1 H16W it was 0.000565 average fractional NGS count over selection days 2 and 3 (reads of this peptide / all reads for the bait, averaged over …; in that of chain 1 H16I, 0.000704 average fractional NGS count over selection days 2 and 3 (reads of this peptide / all reads for the bait, averaged over …; in that of chain 1 E10A, 0.00157 average fractional NGS count over selection days 2 and 3 (reads of this peptide / all reads for the bait, averaged over …. In the case of chain 1 E10M it was 0.00083 average fractional NGS count over selection days 2 and 3 (reads of this peptide / all reads for the bait, averaged over …; in that of chain 1 E10L, 0.000172 average fractional NGS count over selection days 2 and 3 (reads of this peptide / all reads for the bait, averaged over …; in that of chain 1 E10H, 0.000153 average fractional NGS count over selection days 2 and 3 (reads of this peptide / all reads for the bait, averaged over ….

For chain 1 E10I, the screen value was 0.000303 average fractional NGS count over selection days 2 and 3 (reads of this peptide / all reads for the bait, averaged over …. In the case of chain 1 E10N, the screen value is 0.000822 average fractional NGS count over selection days 2 and 3 (reads of this peptide / all reads for the bait, averaged over ….

As to chain 1 E10K, the screen value was 0.000435 average fractional NGS count over selection days 2 and 3 (reads of this peptide / all reads for the bait, averaged over …. As to chain 1 E10G, the screen value is 0.00177 average fractional NGS count over selection days 2 and 3 (reads of this peptide / all reads for the bait, averaged over …. In the case of chain 1 E10V it was 0.000245 average fractional NGS count over selection days 2 and 3 (reads of this peptide / all reads for the bait, averaged over …; in that of chain 1 E10Q, 0.000624 average fractional NGS count over selection days 2 and 3 (reads of this peptide / all reads for the bait, averaged over …. Next, chain 1 E10Y: 0.00125 average fractional NGS count over selection days 2 and 3 (reads of this peptide / all reads for the bait, averaged over ….

chain 1 E10F: the screen value is 0.000339 average fractional NGS count over selection days 2 and 3 (reads of this peptide / all reads for the bait, averaged over …. For chain 1 Q4R, the screen value is 0.000203 average fractional NGS count over selection days 2 and 3 (reads of this peptide / all reads for the bait, averaged over …. chain 1 Q4N: the screen value was 0.00124 average fractional NGS count over selection days 2 and 3 (reads of this peptide / all reads for the bait, averaged over …. As to chain 1 Q4W, the screen value was 0.000181 average fractional NGS count over selection days 2 and 3 (reads of this peptide / all reads for the bait, averaged over …. In the case of chain 1 Q4K it was 0.000138 average fractional NGS count over selection days 2 and 3 (reads of this peptide / all reads for the bait, averaged over …. Turning to chain 1 Q4P, the screen value is 0.000712 average fractional NGS count over selection days 2 and 3 (reads of this peptide / all reads for the bait, averaged over …. Consider chain 1 Q4I, for which the screen value is 0.0028 average fractional NGS count over selection days 2 and 3 (reads of this peptide / all reads for the bait, averaged over ….

For chain 1 Q4D, the screen value was 0.000668 average fractional NGS count over selection days 2 and 3 (reads of this peptide / all reads for the bait, averaged over …. Regarding chain 1 Q4L, the screen value was 0.000267 average fractional NGS count over selection days 2 and 3 (reads of this peptide / all reads for the bait, averaged over …. With chain 1 Q4S, the screen value was 0.000703 average fractional NGS count over selection days 2 and 3 (reads of this peptide / all reads for the bait, averaged over ….

The values are drawn from article PMC12102759 (2025).
